Results from the supplement of paper PMC10567573.

B1: IKZF1 (parent)
chain: YHSQDRYEFSSHITRGEHRFHMS

Variants of: B1
Assay: protein stability index of a GFP-peptide fusion (GPS, HEK-293T) (PSI 1-6); higher = more stable
Details: c terminus: native
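Also: lentivirally expressed fusions sorted by FACS into six bins by GFP to DsRed ratio, PSI derived from sequencing read proportions per bin multiplied by bin number.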

Protein stability index, by site and new letter:
R6: N 2.44; T 1.8; C 2.84; K 2.64; A 2.22; M 2.65; I 2.25; H 1.8; L 2.98; G 2.22; W 2.83; D 2.49; S 1.87; V 2.07; Q 1.9; E 2.29; F 3.44; P 2.23; Y 2.24
S10: C 1.56; V 1.95; R 1.9; A 1.4; L 1.66; K 1.27; Y 2; G 1.92; D 1.74; H 1.84; P 2.08; I 1.92; F 2.1; W 3.17; E 1.74; M 1.6; Q 2.08; T 1.62; N 1.72
F9: Q 1.17; M 2.44; Y 1.95; K 2.05; A 2.02; G 1.97; E 1.97; I 2.03; P 1.73; S 3.12; D 1.98; V 2.65; N 1.8; W 3.1; C 2.54; R 1.67; L 1.96; T 1.49; H 2.04
Y7: P 1.78; I 2.27; W 2.46; G 2.44; R 2.08; L 2.33; K 1.51; S 2.2; A 1.89; N 1.72; V 2; H 1.49; C 1.91; M 1.95; Q 2.04; D 2.26; E 2.18; T 1.85; F 2.78
G16: H 1.56; Q 1.58; C 2.74; W 1.51; Y 4.64; M 2.85; F 1.9; L 1.53; S 1.5; A 1.76; D 2.52; P 2.01; R 2.38; E 3.6; I 1.77; K 2.27; V 1.35; N 2.04; T 2.4
Y1: T 3.5; M 3.5; C 3.03; P 3.84; Q 3.99; H 3.76; D 4.05; N 4.05; G 3.97; K 2.12; R 4.05; F 1.73; V 3.57; I 3.35; L 3.37; S 4.05; A 3.73; W 2.94; E 4
E17: H 1.99; I 2.84; D 1.63; P 2.04; Q 2.48; W 2.07; N 2.92; T 1.4; A 2.75; C 3.05; G 1.56; Y 1.7; R 1.94; M 1.71; F 1.62; S 1.64; V 1.68; K 2.41; L 2.11
R15: Y 2.29; H 1.73; K 1.8; V 1.82; L 2.12; P 1.42; I 3.49; F 2.34; G 1.87; M 1.47; T 2.9; A 2.46; W 1.82; Q 2.22; S 1.55; N 1.99; E 1.81; D 2; C 2.69
E8: K 3.34; R 1.8; G 1.72; N 3.99; L 4.01; C 2.5; Y 3.85; T 3.44; A 2.79; P 3.38; F 3.7; D 2.45; I 2.78; S 3.3; M 2.11; W 2.44; V 1.98; Q 2.17; H 4.13
H2: E 3.98; R 3.37; N 3.72; T 3.16; I 1.94; K 2.01; F 2.51; Q 2.4; D 3.76; V 2.58; A 2.5; P 3.48; L 2.02; S 3.36; M 2.48; Y 2.85; C 2.04; W 2.41; G 3.11
I13: H 2.36; M 2.04; V 1.78; N 2.05; Y 1.49; R 1.49; C 2.08; F 1.81; E 1.83; Q 1.62; S 2.03; T 1.97; K 1.82; A 1.85; L 2.52; P 1.78; G 2.7; W 1.71; D 1.52
D5: A 1.5; S 1.79; Y 2.05; W 3.3; R 1.61; M 3.27; H 2.74; E 3; N 1.84; P 2.04; K 3.72; L 2.17; G 2.85; I 2.41; C 3.34; T 2.18; F 2.55; V 2.31
Q4: F 2.33; A 2.13; M 1.77; G 2.3; R 1.94; H 2.21; V 2.23; N 1.89; W 2.22; K 2.21; C 1.44; T 1.63; Y 1.77; D 2.75; L 2.08; S 2.42; E 3.35; I 1.57; P 1.94
T14: M 1.84; L 2.23; Q 1.34; F 1.47; S 1.85; W 2.7; P 1.52; K 1.49; D 1.83; A 2.38; H 1.99; C 1.58; I 2.15; Y 1.37; E 1.68; N 2.24; R 2.07; V 2.04; G 1.54
H12: I 1.92; L 2.06; S 3.03; P 2.27; V 2.49; Y 1.98; D 1.88; A 1.71; Q 2.83; E 2.47; T 2.15; M 2.74; F 2.04; N 2.67; G 3.61; C 2.66; K 2.31; W 2.85; R 2.79
S3: H 2.14; M 1.95; G 2; R 2.47; P 2.5; F 1.76; L 2.39; D 2.76; A 2.66; Q 2.54; E 2.56; C 1.59; Y 1.63; W 2.61; N 1.61; V 2.15; K 2.33; T 2.13; I 2.73
H18: K 2.22; F 2.66; D 1.12; A 1.45; E 1.97; L 1.99; C 2.04; M 2.75; G 1.6; I 1.65; N 1.45; P 1.81
S11: G 2; Y 1.67; C 1.68; E 2.15; V 1.6; D 2.01; T 2.02; F 2.9; R 2.33; L 3.83; I 1.65; A 2.36; W 2.27; K 1.95; P 3.03; Q 2.07; H 1.61; M 1.48; N 1.92
